Experimental data published in PMC5484534 (Molecular cell, 2017).

B1: PPIL1: human nuclear cyclophilin (protein, UniProt Q9Y3C6 1-166, looked up)
Peptidyl-prolyl cis-trans …: MAAIPPDSWQPPNVYLETSMGIIVLELYWKHAPKTCKNFAELARRGYYNGTKFHRIIKDFMIQGGDPTGTGRGGASIYGKQFEDELHPDLKFTGAGILAMANAGPDTNGSQFFVTLAPTQWLDGKHTIFGRVCQGIGMVNRVGMVETNSQDRPVDDVKIIKAYPSG
B2: PPWD: human nuclear cyclophilin (protein, UniProt Q96BP3 2-646, looked up)
Peptidylprolyl isomerase …: AAESGSDFQQRRRRRRDPEEPEKTELSERELAVAVAVSQENDEENEERWVGPLPVEATLAKKRKVLEFERVYLDNLPSASMYERSYMHRDVITHVVCTKTDFIITASHDGHVKFWKKIEEGIEFVKHFRSHLGVIESIAVSSEGALFCSVGDDKAMKVFDVVNFDMINMLKLGYFPGQCEWIYCPGDAISSVAASEKSTGKIFIYDGRGDNQPLHIFDKLHTSPLTQIRLNPVYKAVVSSDKSGMIEYWTGPPHEYKFPKNVNWEYKTDTDLYEFAKCKAYPTSVCFSPDGKKIATIGSDRKVRIFRFVTGKLMRVFDESLSMFTELQQMRQQLPDMEFGRRMAVERELEKVDAVRLINIVFDETGHFVLYGTMLGIKVINVETNRCVRILGKQENIRVMQLALFQGIAKKHRAATTIEMKASENPVLQNIQADPTIVCTSFKKNRFYMFTKREPEDTKSADSDRDVFNEKPSKEEVMAATQAEGPKRVSDSAIIHTSMGDIHTKLFPVECPKTVENFCVHSRNGYYNGHTFHRIIKGFMIQTGDPTGTGMGGESIWGGEFEDEFHSTLRHDRPYTLSMANAGSNTNGSQFFITVVPTPWLDNKHTVFGRVTKGMEVVQRISNVKVNPKTDKPYEDVSIINITVK
B3: PPIL2: human nuclear cyclophilin (protein, UniProt Q13356 1-520, looked up)
RING-type E3 …: MGKRQHQKDKMYITCAEYTHFYGGKKPDLPQTNFRRLPFDHCSLSLQPFVYPVCTPDGIVFDLLNIVPWLKKYGTNPSNGEKLDGRSLIKLNFSKNSEGKYHCPVLFTVFTNNTHIVAVRTTGNVYAYEAVEQLNIKAKNFRDLLTDEPFSRQDIITLQDPTNLDKFNVSNFYHVKNNMKIIDPDEEKAKQDPSYYLKNTNAETRETLQELYKEFKGDEILAATMKAPEKKKVDKLNAAHYSTGKVSASFTSTAMVPETTHEAAAIDEDVLRYQFVKKKGYVRLHTNKGDLNLELHCDLTPKTCENFIRLCKKHYYDGTIFHRSIRNFVIQGGDPTGTGTGGESYWGKPFKDEFRPNLSHTGRGILSMANSGPNSNRSQFFITFRSCAYLDKKHTIFGRVVGGFDVLTAMENVESDPKTDRPKEEIRIDATTVFVDPYEEADAQIAQERKTQLKVAPETKVKSSQPQAGSQGPQTFRQGVGKYINPAATKRAAEEEPSTSATVPMSKKKPSRGFGDFSSW
B4: PPIG: human nuclear cyclophilin (protein, UniProt Q13427 1-754, looked up)
Peptidyl-prolyl cis-trans …: MGIKVQRPRCFFDIAINNQPAGRVVFELFSDVCPKTCENFRCLCTGEKGTGKSTQKPLHYKSCLFHRVVKDFMVQGGDFSEGNGRGGESIYGGFFEDESFAVKHNKEFLLSMANRGKDTNGSQFFITTKPTPHLDGHHVVFGQVISGQEVVREIENQKTDAASKPFAEVRILSCGELIPKSKVKKEEKKRHKSSSSSSSSSSDSDSSSDSQSSSDSSDSESATEEKSKKRKKKHRKNSRKHKKEKKKRKKSKKSASSESEAENLEAQPQSTVRPEEIPPIPENRFLMRKSPPKADEKERKNRERERERECNPPNSQPASYQRRLLVTRSGRKIKGRGPRRYRTPSRSRSRDRFRRSETPPHWRQEMQRAQRMRVSSGERWIKGDKSELNEIKENQRSPVRVKERKITDHRNVSESPNRKNEKEKKVKDHKSNSKERDIRRNSEKDDKYKNKVKKRAKSKSRSKSKEKSKSKERDSKHNRNEEKRMRSRSKGRDHENVKEKEKQSDSKGKDQERSRSKEKSKQLESKSNEHDHSKSKEKDRRAQSRSRECDITKGKHSYNSRTRERSRSRDRSRRVRSRTHDRDRSRSKEYHRYREQEYRRRGRSRSRERRTPPGRSRSKDRRRRRRDSRSSEREESQSRNKDKYRNQESKSSHRKENSESEKRMYSKSRDHNSSNNSREKKADRDQSPFSKIKQSSQDNELKSSMLKNKEDEKIRSSVEKENQKSKGQENDHVHEKNKKFDHESSPGTDEDKSG
B5: PPIL3: human nuclear cyclophilin (protein, UniProt Q9H2H8 2-161, looked up)
Peptidyl-prolyl cis-trans …: SVTLHTDVGDIKIEVFCERTPKTCENFLALCASNYYNGCIFHRNIKGFMVQTGDPTGTGRGGNSIWGKKFEDEYSEYLKHNVRGVVSMANNGPNTNGSQFFITYGKQPHLDMKYTVFGKVIDGLETLDELEKLPVNEKTYRPLNDVHIKDITIHANPFAQ
modifications: His6-GST tag
B6: CWC27: human nuclear cyclophilin (protein, UniProt Q6UX04 2-472, looked up)
Spliceosome-associated …: SNIYIQEPPTNGKVLLKTTAGDIDIELWSKEAPKACRNFIQLCLEAYYDNTIFHRVVPGFIVQGGDPTGTGSGGESIYGAPFKDEFHSRLRFNRRGLVAMANAGSHDNGSQFFFTLGRADELNNKHTIFGKVTGDTVYNMLRLSEVDIDDDERPHNPHKIKSCEVLFNPFDDIIPREIKRLKKEKPEEEVKKLKPKGTKNFSLLSFGEEAEEEEEEVNRVSQSMKGKSKSSHDLLKDDPHLSSVPVVESEKGDAPDLVDDGEDESAEHDEYIDGDEKNLMRERIAKKLKKDTSANVKSAGEGEVEKKSVSRSEELRKEARQLKRELLAAKQKKVENAAKQAEKRSEEEEAPPDGAVAEYRREKQKYEALRKQQSKKGTSREDQTLALLNQFKSKLTQAIAETPENDIPETEVEDDEGWMSHVLQFEDKSRKVKDASMQDSDTFEIYDPRNPVNKRRREESKKLMREKKERR

Tested on: BMAL1 TAD
Assay: Cyclophilin acceleration of TAD switch isomerization by 15N-1H ZZ-exchange NMR
Format: biochemical, mouse
Conditions: room temperature (22.68°C), 400 μM 15N BMAL1 TAD + 100 μM cyclophilin, 20 mM HEPES pH 7.0 (pH 7.5 for His6GST-PPIL3), 100 mM NaCl, 2 mM TCEP

Molecule | activity on TAD switch isomerization, in words
B1 | significantly increased the rate of isomerization in BMAL1
B2 | either not active on the TAD or had activity that was below the detection limit
B3 | either not active on the TAD or had activity that was below the detection limit
B4 | significantly increased the rate of isomerization in BMAL1
B5 | significantly increased the rate of isomerization in BMAL1
B6 | either not active on the TAD or had activity that was below the detection limit

Tested on: not given
Assay: not given
Conditions: ref Davis et al., 2010; cited from earlier work

Molecule | activity on generic peptide substrates
B3 | lack activity on generic peptide substrates
B6 | lack activity on generic peptide substrates
